Square brackets hold non-standard residues; d marks the D form. Ends that are not written are not given here. Ala(2-NH2-4-pyridyl) = Nc1cc(C[C@H](N)C(=O)O)ccn1; 3Pal(6-Ph) = N[C@@H](Cc1ccc(-c2ccccc2)nc1)C(=O)O; Phe(4-COOH) = N[C@@H](Cc1ccc(C(=O)O)cc1)C(=O)O; Bip = N[C@@H](Cc1ccc(-c2ccccc2)cc1)C(=O)O; cisHyp = O=C(O)[C@@H]1C[C@H](O)CN1; Hyp = O=C(O)[C@@H]1C[C@@H](O)CN1; NMeF = CN[C@@H](Cc1ccccc1)C(=O)O; Aad = N[C@@H](CCCC(=O)O)C(=O)O; Cha = N[C@@H](CC1CCCCC1)C(=O)O; Abu = CC[C@H](N)C(=O)O
Tests used:
[1] = target: T1, BMP7 (Homo sapiens, UniProt P18075); test: BMP7 signal transduction inhibitory activity: SMAD1 phosphorylation by BMP7 stimulus, A549 cells; type: cell-based; settings: SMAD1 phosphorylation, BMP7 10 nM
T1 sequence (P18075 293-431): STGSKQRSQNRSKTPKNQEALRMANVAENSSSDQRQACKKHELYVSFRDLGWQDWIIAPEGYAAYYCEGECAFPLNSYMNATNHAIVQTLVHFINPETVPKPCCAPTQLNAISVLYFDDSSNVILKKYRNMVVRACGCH
Method in brief: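 A549 cells were stimulated with 10 nM BMP7, and the read-out was SMAD1 phosphorylation. Peptides were tested at three concentrations spanning 1 to 1,000 nM, with sets depending on the peptide series. Some peptides were run in eight-point 1/3 dilutions starting from 100 nM or 1,000 nM, with recombinant human Noggin as positive control at matching concentrations.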

[2] = target: T2, BMP4 (Homo sapiens, UniProt P12644); test: BMP4 signal transduction inhibitory activity: SMAD1 phosphorylation by BMP4 stimulus, AlphaLISA SureFire, A549 cells; type: cell-based; settings: SMAD1 phosphorylation, BMP4 0.2 nM
T2 sequence (P12644 293-408): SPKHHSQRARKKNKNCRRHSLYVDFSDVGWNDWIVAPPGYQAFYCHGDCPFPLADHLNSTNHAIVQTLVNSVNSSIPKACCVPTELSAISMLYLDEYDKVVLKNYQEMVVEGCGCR

[3] = peptide conc. in assay 1, 10, 100 nM
[4] = peptide conc. in assay 0.2, 2, 20 nM

Substance	aLISA BMP7 (10 nM) % inh [1, 3]	aLISA BMP4 (0.2 nM) % inh [2, 4]	aLISA BMP7 (10 nM) % inh ([1]; peptide conc. in assay 10, 30, 90 nM)	aLISA BMP4 (0.2 nM) % inh ([2]; peptide conc. in assay 2, 20, 200 nM)
352 (FG[NMeF]G[Bip]GDD[Cha]A[NMeF]LGCG-NH2; not fully specified (N-terminus, bridges); also: cyclic peptide, ring closure not given here) [compound 352]	D (showed less than 30% of inhibitory activity in 10 nM-addition zone and showed 30% or more of inhibitory activity in 100 nM-addition zone)	ND (the inhibitory activity was less than 30% at the maximum concentration evaluated)		
353 (FG[NMeF]G[Bip]GDD[Cha]A[NMeF]LSCG-NH2; not fully specified (N-terminus, bridges); also: cyclic peptide, ring closure not given here) [compound 353]	D (showed less than 30% of inhibitory activity in 10 nM-addition zone and showed 30% or more of inhibitory activity in 100 nM-addition zone)	ND (the inhibitory activity was less than 30% at the maximum concentration evaluated)		
354 (FG[NMeF]G[Bip]GDD[Cha]A[NMeF]LNCG-NH2; not fully specified (N-terminus, bridges)) [compound 354]	D (showed less than 30% of inhibitory activity in 10 nM-addition zone and showed 30% or more of inhibitory activity in 100 nM-addition zone)	ND (the inhibitory activity was less than 30% at the maximum concentration evaluated)		
355 (FG[NMeF]G[Bip]GDD[Cha]A[NMeF]L[Hyp]CG-NH2; not fully specified (N-terminus, bridges)) [compound 355]	D (showed less than 30% of inhibitory activity in 10 nM-addition zone and showed 30% or more of inhibitory activity in 100 nM-addition zone)	A (showed less than 30% of inhibitory activity in 2 nM-peptide-addition zone and showed 30% or more of inhibitory activity in 20 nM-addition zone)		
356 (FG[NMeF]G[Bip]GDD[Cha]A[NMeF]L[cisHyp]CG-NH2; not fully specified (N-terminus, bridges)) [compound 356]	C (showed less than 30% of inhibitory activity in a zone to which the peptide was added in an amount of 1 nM and showed 30% or more of inhibitory activity in 10 nM-addition zone)	A (showed less than 30% of inhibitory activity in 2 nM-peptide-addition zone and showed 30% or more of inhibitory activity in 20 nM-addition zone)		
357 (FG[NMeF]G[Bip]GDD[Cha]A[NMeF]L[Phe(4-COOH)]CG-NH2; not fully specified (N-terminus, bridges)) [compound 357]	D (showed less than 30% of inhibitory activity in 10 nM-addition zone and showed 30% or more of inhibitory activity in 100 nM-addition zone)	ND (the inhibitory activity was less than 30% at the maximum concentration evaluated)		
358 (FG[NMeF]G[Bip]GDE[Cha]A[NMeF]LHCG-NH2; not fully specified (N-terminus, bridges)) [compound 358]	D (showed less than 30% of inhibitory activity in 10 nM-addition zone and showed 30% or more of inhibitory activity in 100 nM-addition zone)	ND (the inhibitory activity was less than 30% at the maximum concentration evaluated)		
359 (FG[NMeF]G[Bip]GDE[Cha]A[NMeF]L[Abu]CG-NH2; not fully specified (N-terminus, bridges)) [compound 359]	D (showed less than 30% of inhibitory activity in 10 nM-addition zone and showed 30% or more of inhibitory activity in 100 nM-addition zone)	ND (the inhibitory activity was less than 30% at the maximum concentration evaluated)		
360 (FG[NMeF]G[Bip]GDE[Cha]A[NMeF]L[Ala(2-NH2-4-pyridyl)]CG-NH2; not fully specified (N-terminus, bridges)) [compound 360]	D (showed less than 30% of inhibitory activity in 10 nM-addition zone and showed 30% or more of inhibitory activity in 100 nM-addition zone)	ND (the inhibitory activity was less than 30% at the maximum concentration evaluated)		
361 (FG[NMeF]G[Bip]GDE[Cha]A[NMeF]L[Phe(4-COOH)]CG-NH2; not fully specified (N-terminus, bridges)) [compound 361]	D (showed less than 30% of inhibitory activity in 10 nM-addition zone and showed 30% or more of inhibitory activity in 100 nM-addition zone)	ND (the inhibitory activity was less than 30% at the maximum concentration evaluated)		
362 (FG[NMeF]GFGDE[Cha]A[NMeF]LHCG-NH2; not fully specified (N-terminus, bridges)) [compound 362]	D (showed less than 30% of inhibitory activity in 10 nM-addition zone and showed 30% or more of inhibitory activity in 100 nM-addition zone)	ND (the inhibitory activity was less than 30% at the maximum concentration evaluated)		
363 (FG[NMeF]G[3Pal(6-Ph)]GDE[Cha]A[NMeF]LHCG-NH2; not fully specified (N-terminus, bridges)) [compound 363]	D (showed less than 30% of inhibitory activity in 10 nM-addition zone and showed 30% or more of inhibitory activity in 100 nM-addition zone)	ND (the inhibitory activity was less than 30% at the maximum concentration evaluated)		
364 (FG[NMeF]G[Bip]GDE[Cha]Q[NMeF]LHCG-NH2; not fully specified (N-terminus, bridges)) [compound 364]	D (showed less than 30% of inhibitory activity in 10 nM-addition zone and showed 30% or more of inhibitory activity in 100 nM-addition zone)	ND (the inhibitory activity was less than 30% at the maximum concentration evaluated)		
365 (FG[NMeF]G[Bip]GDE[Cha][Abu][NMeF]LHCG-NH2; not fully specified (N-terminus, bridges)) [compound 365]	D (showed less than 30% of inhibitory activity in 10 nM-addition zone and showed 30% or more of inhibitory activity in 100 nM-addition zone)	ND (the inhibitory activity was less than 30% at the maximum concentration evaluated)		
366 (FG[NMeF]G[Bip]GDE[Cha][Aad][NMeF]LHCG-NH2; not fully specified (N-terminus, bridges)) [compound 366]	D (showed less than 30% of inhibitory activity in 10 nM-addition zone and showed 30% or more of inhibitory activity in 100 nM-addition zone)	ND (the inhibitory activity was less than 30% at the maximum concentration evaluated)		
367 (FG[NMeF]GFGDE[Cha]Q[NMeF]LHCG-NH2; not fully specified (N-terminus, bridges)) [compound 367]	D (showed less than 30% of inhibitory activity in 10 nM-addition zone and showed 30% or more of inhibitory activity in 100 nM-addition zone)	ND (the inhibitory activity was less than 30% at the maximum concentration evaluated)		
368 (FG[NMeF]G[Bip]GDE[Cha]Q[NMeF]L[Phe(4-COOH)]CG-NH2; not fully specified (N-terminus, bridges)) [compound 368]	C (showed less than 30% of inhibitory activity in a zone to which the peptide was added in an amount of 1 nM and showed 30% or more of inhibitory activity in 10 nM-addition zone)	ND (the inhibitory activity was less than 30% at the maximum concentration evaluated)		
369 (FG[NMeF]GFGDE[Cha]Q[NMeF]L[Phe(4-COOH)]CG-NH2; not fully specified (N-terminus, bridges)) [compound 369]	D (showed less than 30% of inhibitory activity in 10 nM-addition zone and showed 30% or more of inhibitory activity in 100 nM-addition zone)	ND (the inhibitory activity was less than 30% at the maximum concentration evaluated)		
370 (FG[NMeF]G[3Pal(6-Ph)]GDE[Cha]Q[NMeF]L[Phe(4-COOH)]CG-NH2; not fully specified (N-terminus, bridges)) [compound 370]	D (showed less than 30% of inhibitory activity in 10 nM-addition zone and showed 30% or more of inhibitory activity in 100 nM-addition zone)	ND (the inhibitory activity was less than 30% at the maximum concentration evaluated)		
371 (FGFGFGDDAAFLHCG; not fully specified; MOD_RES 3 F represents Methyl-L-phenylalanine(MeF); MOD_RES 5 F represents (S)-3-(1,1'-Biphenyl-4-yl)-2-aminopropanoic acid(Bph); MOD_RES 9 A represents (S)-2-Amino-3-cyclohexylpropanoic acid(Cha); MOD_RES 11 F represents Methyl-L-phenylalanine(MeF)) [compound 371]			E (showed 30% or more of inhibitory activity in 10 nM-addition zone)	A (showed less than 30% of inhibitory activity in 2 nM-peptide-addition zone and showed 30% or more of inhibitory activity in 20 nM-addition zone)
